In the DeepSol protein solubility set:

Assay: soluble on expression in E. coli; label from the status in PepcDB or PDB records
For “MSKEKYSFEDLIKVMEELRKKCPWDREQTHESLKKYLIEEAYEVLDAIDSKDDEKLKEELGDLLLQVVFHSQIAKERGAFDINDVIDTLVKKLIERHPHVFGCANPEDVLKNWEKKKMEKRKSIFEGIPKHLPALMRSQKLQDRTSQVGFDFQDISQVFEKIQEEINELKESLEKGDRENIKHEIGDILTAVVELARFVNVDAEEALQEANERFIRRFSYIEKKAKEEGRKLEDMSLEEMDKLWMEAKKLEEQGKLS”, the “soluble on expression in E. coli” value was “soluble”. In the case of “MAHHHHHHMPPLTLEQVLARSMRLPRKHMKHTATPMASNPAIGISTPLDNSLGRGDKSVAKLFSLIEKDEESTAAGRPFIHQSNNLIRNSHDLLTYLHTAKRMRAWEDALRSFAEVTKMLLINQTEEGDGVSLTLREGAEGAEGVTASVSHLALLLDTCASAKQWHLVEQIGEIFRSQSRQTLIDAVAVLANTKKETIGEGLYGWERALHFLQTRIPPEEQPVEAYNACIAACETALEWEGALAIVRSMGPNPLQNLDSKVFSGTTGIGVASAGSTVEGVSSSLGTEAREESVLATFPPPVPDVVTYATLISVLEQSGKEALASEVLQRLPPVEKEEITASYAALIHVWSEQKYRNHRRRF”, the “soluble on expression in E. coli” value is reported as “not soluble”. For “MGSDKIHHHHHHMSLTNVLFLAEELRVGGAETYFYKIENKIDLKKINFYTAAVNGRCFDKLNNKHMYFEYEKGLFSKIKTIKKIVISKNINVIHANSLRLAIISSIVKKLYKKDLKIVYTKHNLTILEKIHTKLFSAFVNKNVDIVLAVCNKDRDNMISIGVSEEKVKVIPNSIDLKHFKFNSKYLRDAGKDFKVGMLSRLSKEKNHEFFLDIAEKADFRALIGGDGPLREEINNRIEKSNLKKKVKMLGNIENSYEFLSSVDVMLLVSTREIFPMTLLEAMAVGTIVISVDIGGIRDCVINDKTGYVIDDYQSEKFITKISDILSDYDKNKELISAARELVENSFNLDITIDELQRLYGEVGL”, the “soluble on expression in E. coli” value was “not soluble”. In the case of “MSLIIAIQGGMAVGKTTALKIIEKVYPKIAISFEDISPVVDKINKHQLDNNKLDDYCEIQQLFIQHERDRYELVRDNEIVLMDYGAEEIAFYTQYFPKVAGYSWTLPSNLLLEVNRLKECFADYIIFLDADKTVLYQRQKNDFNRRRHFFKWYTHHLLPAKKHYLDTFSNVIHINTNHLNAEEVAEKIIDIIRKLTEGHHHHHH”, the “soluble on expression in E. coli” value is reported as “soluble”. In the case of “MSLTHTVHLHLEETDNLALQRLCGSFDNNLDLLAKALDIHISRRFEHFTFNGAFAHAGKRALLKLLETAQTRDLNDGDIRLAAVEAQTEDAGHQEKNHDHAYYFRTKRGSIGGRTPRQNGYIRALLNHDIVFGLGPAGTGKTYLAVAAAVDAMEKHQVERIILVRPAVEAGEKLGFLPGDLTQKVDPYLRPLYDALYDLMGFDRVTKLIEKGLIEIAPLAYMRGRTLNGAYIILDEAQNTTPEQMKMFLTRIGFGAKAVITGDTSQIDLPKNIKSGLKDAREKLHNVEGLYFHTFTGEDVVRHPLVQKIVEAYESAEHDEGGSHHHHHH”, the “soluble on expression in E. coli” value is reported as “soluble”. In the case of “MTEAQRHQILLEMLAQLGFVTVEKVVERLGISPATARRDINKLDESGKLKKVRNGAEAITQQRPRWTPMNLHQAQNHDEKVRIAKAASQLVNPGESVVINCGSTAFLLGREMCGKPVQIITNYLPLANYLIDQEHDSVIIMGGQYNKSQSITLSPQGSENSLYAGHWMFTSGKGLTAEGLYKTDMLTAMAEQKMLSVVGKLVVLVDSSKIGERAGMLFSRADQIDMLITGKNANPEILQQLEAQGVSILRVLEHHHHHH”, the “soluble on expression in E. coli” value is reported as “not soluble”. For “MCFSFIMPPAMADILDIWAVDSQIASDGSIPVDFLLPTGIYIQLEVPREATISYIKQMLWKQVHNYPMFNLLMDIDSYMFACVNQTAVYEELEDETRRLCDVRPFLPVLKLVTRSCDPGEKLDSKIGVLIGKGLHEFDSLKDPEVNEFRRKMRKFSEEKILSLVGLSWMDWLKQTYPPEHEPSIPENLEDKLYGGKLIVAVHFENCQDVFSFQVSPNMNPIKVNELAIQKRLTIHGKEDEVSPYDYVLQVSGRVEYVFGDHPLIQFQYIRNCVMNRALPHFILVECCKIKKMYEQEMIAIEAAINRNSSNLPLPLPPKKTRIISHVWENNNPFQIVLVKGNKLNTEETVKVHVRAGLFHGTELLCKTIVSSEVSGKNDHIWNEPLEFDINICDLPRMARLCFAVYAVLDKVKTKKSTKTINPSKYQTIRKAGKVHYPVAWVNTMVFDFKGQLRTGDIILHSWSSFPDELEEMLNPMGTVQTNPYTENATALHVKFPENKKQPYYYPPFDKIIEKAAEIASSDSANVSSRGGKKFLPVLKEILDRDPLSQLCENEMDLIWTLRQDCREIFPQSLPKLLLSIKWNKLEDVAQLQALLQIWPKLPPREALELLDFNYPDQYVREYAVGCLRQMSDEELSQYLLQLVQVLKYEPFLDCALSRFLLERALGNRRIGQFLFWHLRSEVHIPAVSVQFGVILEAYCRGSVGHMKVLSKQVEALNKLKTLNSLIKLNAVKLNRAKGKEAMHTCLKQSAYREALSDLQSPLNPCVILSELYVEKCKYMDSKMKPLWLVYNNKVFGEDSVGVIFKNGDDLRQDMLTLQMLRLMDLLWKEAGLDLRMLPYGCLATGDRSGLIEVVSTSETIADIQLNSSNVAAAAAFNKDALLNWLKEYNSGDDLDRAIEEFTLSCAGYCVASYVLGIGDRHSDNIMVKKTGQLFHIDFGHILGNFKSKFGIKRERVPFILTYDFIHVIQQGKTGNTEKFGRFRQCCEDAYLILRRHGNLFITLFALMLTAGLPELTSVKDIQYLKDSLALGKSEEEALKQFKQKFDEALRESWTTKVNWMAHTVRKDYRS”, the “soluble on expression in E. coli” value was “soluble”. For “MAHELQLIKQSSGILIPATPETSEILQSKIKLGAVLVAEFRQVRNPAFHRRFFALLNLGFEYWEPTGGAISANERKLVNGYAKFLAAYGGNESALLDAAEQYLEQIANRRVTNGISLCKSFDAYRAWVTVEAGHYDAIQLPDGTLRKHPRSIAFSSMDEVEFQQLYKSALDVLWRWILSRTFRTQREAENAAAQLMSWAG”, the “soluble on expression in E. coli” value was “not soluble”. With “TSDTPALLYIHGLNSSAQSKKACQLIALMKSLGLADRLQVPELHHHPRQAMLQLESAIGALGRPLLVGSSLGGYYATHLAQRHGLKAVLINPAVNPHQLFDGFLGMQQNLYTGEQWQLTEDHIKALAELEVPAPQDPQQFQVWLQTGDETLDYRRAEKFYRACALRIQAGGDHSFQGFAERLPALLSFAGFAPDLLQ” the “soluble on expression in E. coli” value was “not soluble”. For “MGSDKIHHHHHHVPNFLPINTILVPQGAEYKAVCRGLNGVTGSIPTVVAIPVGMKPLLKYLHQGQFLAPKSRVLIMGICGSLSDRYRVGDIVLYQDCIYQGKLLECDRTFTAQLHSSLSEKVSLVKSLTSDRMIWSAAEKLHLGETLAADVVDMEGFTALEFFNVGGVAVTMLRVVSDDCQHDIPDLTSAINSDGSLNPFSLAMAMLRQPLAATRLIRGSLTALKVLEQVTNMLFSGNRPE”, the “soluble on expression in E. coli” value was “not soluble”. For “MRALREKTSMSQGVEFNRLMLDMRAMQMDAMSAPKPVSGAQEAGASSFADMLGQAVNKVAQTQQASSQLANAFEVGKSGIDLTDVMISSQKASVSFQALTQVRNKLVQAYQDIMQMPV”, the “soluble on expression in E. coli” value was “not soluble”. With “MNSEHPMTDRVVYRSLMADNLRWDALQLRDGDIIISAPSKSGLTWTQRLVSLLVFDGPDLPGPLSTVSPWLDQTIRPIEEVVATLDAQQHRRFIKTHTPLDGLVLDDRVSYICVGRDPRDAAVSMLYQSANMNEDRMRILHEAVVPFHERIAPPFAELGHARSPTEEFRDWMEGPNQPPPGIGFTHLKGIGTLANILHQLGTVWVRRHLPNVALFHYADYQADLAGELLRPARVLGIAATRDRARDLAQYATLDAMRSRASEIAPNTTDGIWHSDERFFRRGGSGDWQQFFTEAEHLRYYHRINQLAPPDLLAWAHEGRRGYDPAN” the “soluble on expression in E. coli” value was “soluble”. In the case of “MSLSTMLVAEDLSAVGGISLSSALPVLTAMQYDVAALPTSLLSTHTSGYGTPAVVDLSTWLPQVFAHWTRAQLHFDQALIGYVGSVALCQQITTYLEQQTLSLLVVDPVLGDLGQLYQGFDQDYVAAMRQLIQQADVILPNTTEAALLTGAPYQVTPDLEVILPALQAQLKTGAHAVITDVQRADQIGCAWLDEAGHVQYCGARRLPGHYNGTGDTLAAVIAGLLGRGYPLAPTLARANQWLNMAVAETIAQNRTDDRQGVALGDLLQAILALNEGHHHHHH”, the “soluble on expression in E. coli” value is reported as “soluble”. With “MKVAVLGATGKEGQLLLAEAKRRGMDVTAIVRNASKITDGTPTIEKDVYQLTTEDIQAFDVLISALGFPDVQDFPKSTQHLIEILTNQKTRLFVVGGAGTLYVDPEHTTQLKDTPSFPAEIQPLASAMGEALNLLKEAQNIHWTYISPAAMFDADGPATGHYEVAGEELTTNSQGDSYISYADYAVAMLDEVESNAHPNQRISVYQLEHHHHHH” the “soluble on expression in E. coli” value was “soluble”. In the case of “MAAAGARPVELGFAESAPAWRLRSEQFPSKVGGRPAWLGAAGLPGPQALACELCGRPLSFLLQVYAPLPGRPDAFHRCIFLFCCREQPCCAGLRVFRNQLPRKNDFYSYEPPSENPPPETGESVCLQLKSGAHLCRVCGCLGPKTCSRCHKAYYCSKEHQTLDWRLGHKQACAQPDHLDHIIPDHNFLFPEFEIVIETEDEIMPEVVEKEDYSEIIGSMGEALEEELDSMAKHESREDKIFQKFKTQIALEPEQILRYGRGIAPIWISGENIPQEKDIPDCPCGAKRILEFQVMPQLLNYLKADRLGKSIDWGILAVFTCAESCSLGTGYTEEFVWKQDVTDTP”, the “soluble on expression in E. coli” value is reported as “soluble”. For “MSLIYSSENDYSILEDKTATGKKRDWKGKKRRTNLMAEHYEALESKIGAPYYGKKAEKLISCAEYLSFKRDPETGKLKLYQAHFCKVRLCPMCAWRRSLKIAYHNKLIVEEANRQYGCGWIFLTLTIRNVKGERLKPQISAMMEGFRKLFQYKKVKTSVLGFFRALEITKNHEEDTYHPHFHVLIPVRKNYFGKNYIKQAEWTSLWKKAMKLDYTPIVDIRRVKGKAKIDAEQIENDVRNAMMEQKAVLEISKYPVKDTDVVRGNKVTEDNLNTVLYLDDALAARRLIGYGGILKEIHKELNLGDAEDGDLVKIEEEDDEVANGAFEVMAYWHPGIKNYIIKEGHHHHHH”, the “soluble on expression in E. coli” value was “soluble”. For “MAHHHHHHMLRRHFQLFLRRTPLWLADDGSSLFERYTEIENSNERRMSALKACGMFDDEWIATEKVHGANFGIYSIEGEKTIRYAKRSGIMHPTEHFFGYHMLVPQLQQYITVTREMLCDKLQKKLHTVLINGELFGGKYDHPSLQKTRKTVMVAGKPRTISAVQTDSFPQYSPDLHFYAFDIKYKETNEAEYVTLTFDDATELFKRVPGLLYARAIIRGPMSKVAAFDVEHFVTTIPPLVGMGNYPLKGNWAEGLVVKHAKRGTPGFDPKGLTILKFKCTAFQEISTDRRQGPRVDEMESVRRDSISRSGIQLPALESIIHDPVQLEASKFLLDHICENRLNAVLSKIGTDPFEKQEMTPDDLATLLAKDALKDFLKEAEPAIVNTPILTRRDMARYVLFESRQLVCSRWKAILQRQTADVVE”, the “soluble on expression in E. coli” value was “not soluble”. With “MGSDKIHHHHHHMTVIDLSALDPPDLVETLDFEAAYQYKLQHFKSIYPDWTAALESDPVVKLIELAAYDEVRFRARVNDAGRAVLLAYSTGADLEHLAVLWNLQRETVDPGDPEAHPPVPATRERDERLRLRTQMGIERSSTAGPFGAYRSLAMDASPDVADVRVDRPEAGVVRVVVKSYSNGGVASAALLDTVRRALSPEDRRPLNDSLLVVAARPVNYAIVADVYIGRGPDPGVVLAARRQDLDIAVAAGEALRVGMPRSAVTGALHPKASGVVRVDLKLPAADVVCAIDQFARCTSIVLNPKVADDD” the “soluble on expression in E. coli” value was “not soluble”. With “MGSDKIHHHHHHMRIAIDPFMHRHLSLEELPRKVRELGYDWIEMSPRADFLEWFKAPRVFPQRMKEFKKALAAENVKIASLLPMYRWASNDETERKAAVKHWKRAIEIAVEMEIDTMNSEFGRGPHPDKGSCYCCHTGSMIEACEDAWWRSMEELVPVFERENIQLNIEPHPEDWCETLQPALDIIRTVNSKNVKFLYCAPHTFYFGDDTKAMLREAKDVLAHVHVGDTFNHKASSGLRYILNPPGTQARVHQHLNIGQGEVPWDDFFGTLAEIGFDGTMTACVFAWEDRADHSGKFMLSEMNRYIEKYWPK” the “soluble on expression in E. coli” value was “not soluble”. In the case of “ALSGSSGYKFGVLAKIVNYMKTRHQRGDTHPLTLDEILDETQHLDIGLKQKQWLMTEALVNNPKIEVIDGKYAFKPKYNVR”, the “soluble on expression in E. coli” value is reported as “soluble”.
